The text below walks through data of the supplement of paper PMC10567573.

Sequences and labels used below:
B1: INTS4 (parent)
chain: YSSGEFSSGRKWGDDAPKEEVDTG
B2: NET1 (parent)
chain: PTPAKRRSSALWSEMLDITMKESL
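Also: lentivirally expressed fusions sorted by FACS into six bins by GFP to DsRed ratio, PSI derived from sequencing read proportions per bin multiplied by bin number.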

In the first data set the parent is B1. Nature of the data set: protein stability index of a GFP-peptide fusion (GPS, HEK-293T) (PSI 1-6); higher = more stable. The following applies: c terminus: a fixed tail appended.
YSSGEFSSGRKWGDDAPKEVVDTG [E20V]: the protein stability index is 2.37.

Regarding YSSGEFSSGRKWGDDAPKELVDTG [E20L], the protein stability index worked out at 1.89.

In the case of YSSGEFSSGRKWGDDAPKEAVDTG [E20A], the protein stability index was found to be 2.3.

In the case of YSSGEFSSGRKWGDDAPKEMVDTG [E20M], the protein stability index amounted to 2.31.

With YSSGEFSSGRKWGDDAPKERVDTG [E20R], the protein stability index came to 2.28.

With YSSGEFSSGRKWGDDAPKEFVDTG [E20F], the protein stability index is 2.42.

In the case of YSSGEFSSGRKWGDDAPKEPVDTG [E20P], the protein stability index came out at 2.42.

YSSGEFSSGRKWGDDAPKEIVDTG [E20I]: the protein stability index was determined as 2.43.

Consider YSSGEFSSGRKWGDDAPKEWVDTG [E20W], for which the protein stability index is 1.97.

Consider YSSGEFSSGRKWGDDAPKEKVDTG [E20K], for which the protein stability index is 1.91.

As to YSSGEFSSGRKWGDDAPKEHVDTG [E20H], the protein stability index was determined as 2.63.

YSSGEFSSGRKWGDDAPKEDVDTG [E20D]: the protein stability index amounted to 2.49.

Take YSSGEFSSGRKWGDDAPKETVDTG [E20T]: the protein stability index was found to be 2.38.

In the case of YSSGEFSSGRKWGDDAPKEYVDTG [E20Y], the protein stability index is 3.19.

Take YSSGEFSSGRKWGDDAPKESVDTG [E20S]: the protein stability index is 1.91.

For YSSGEFSSGRKWGDDAPKECVDTG [E20C], the protein stability index was determined as 2.5.

Consider YSSGEFSSGRKWGDDAPKEEVDTI [G24I], for which the protein stability index is 2.25.

With YSSGEFSSGRKWGDDAPKEEVDTY [G24Y], the protein stability index came to 2.28.

On to YSSGEFSSGRKWGDDAPKEEVDTV [G24V], for which the protein stability index turned out to be 2.72.

Take YSSGEFSSGRKWGDDAPKEEVDTR [G24R]: the protein stability index came to 2.83.

Regarding YSSGEFSSGRKWGDDAPKEEVDTA [G24A], the protein stability index is 2.59.

With YSSGEFSSGRKWGDDAPKEEVDTH [G24H], the protein stability index worked out at 2.51.

On to YSSGEFSSGRKWGDDAPKEEVDTN [G24N], for which the protein stability index came to 3.09.

For the variant YSSGEFSSGRKWGDDAPKEEVDTC [G24C], the protein stability index is 2.96.

Consider YSSGEFSSGRKWGDDAPKEEVDTS [G24S], for which the protein stability index is 2.65.

As to YSSGEFSSGRKWGDDAPKEEVDTL [G24L], the protein stability index stood at 2.76.

As to YSSGEFSSGRKWGDDAPKEEVDTE [G24E], the protein stability index is 2.74.

Take YSSGEFSSGRKWGDDAPKEEVDTK [G24K]: the protein stability index came out at 3.9.

In the case of YSSGEFSSGRKWGDDAPKEEVDTT [G24T], the protein stability index was 2.72.

With YSSGEFSSGRKWGDDAPKEEVDTD [G24D], the protein stability index is 2.16.

With YSSGEFSSGRKWGDDAPKEEVDTP [G24P], the protein stability index turned out to be 2.4.

Regarding YSSGEFSSGRKWGDDAPKEEVDTM [G24M], the protein stability index amounted to 2.68.

For YSSGEFSSGRKWGDDAPKEEVDTF [G24F], the protein stability index was 2.63.

Regarding YSSGEFSSGRKWGDDAPKEEVDTQ [G24Q], the protein stability index turned out to be 2.58.

In a further data set the parent is B2. The data set is described as above. The note with it: c terminus: a fixed tail appended.
On to PTPAKRRSSALWSEMLDITMKEPL [S23P], for which the protein stability index was 2.63.

In the case of PTPAKRRSSALWSEMLDITMKETL [S23T], the protein stability index was determined as 1.89.

Consider PTPAKRRSSALWWEMLDITMKESL [S13W], for which the protein stability index is 3.21.

In the case of PTPAKRRSSALWYEMLDITMKESL [S13Y], the protein stability index turned out to be 2.09.

Consider PTPAKRRSSALWAEMLDITMKESL [S13A], for which the protein stability index worked out at 1.42.

Consider PTPAKRRSSALWHEMLDITMKESL [S13H], for which the protein stability index worked out at 2.88.

As to PTPAKRRSSALWSEMLDITMKESP [L24P], the protein stability index came out at 2.85.

PTPAKRRSSALWSEMLDITMKESE [L24E]: the protein stability index stood at 1.31.

Regarding PTPAKRRSSALWSEMLDITMKESI [L24I], the protein stability index is 2.29.

PTPAWRRSSALWSEMLDITMKESL [K5W]: the protein stability index turned out to be 1.54.

As to PTPAKRRSSALWSEMLDETMKESL [I18E], the protein stability index was found to be 2.9.

On to PTPAKRRSSALWSEMLDYTMKESL [I18Y], for which the protein stability index was 2.97.

Regarding PTPAKRRSSALWSEMLDSTMKESL [I18S], the protein stability index stood at 2.77.

Take PTPAKRRSSALWSEMLDFTMKESL [I18F]: the protein stability index turned out to be 2.46.

Consider PTPAKRRSSALWSEELDITMKESL [M15E], for which the protein stability index was 4.77.

Turning to PTPAKRRSSALWSEDLDITMKESL [M15D], the protein stability index came out at 3.91.

As to PTPAKRRSQALWSEMLDITMKESL [S9Q], the protein stability index was determined as 2.34.

Turning to PTPAKRRSNALWSEMLDITMKESL [S9N], the protein stability index is 2.21.

As for PTPAKRRSEALWSEMLDITMKESL [S9E], the protein stability index was determined as 2.4.

Consider PTPAKRRYSALWSEMLDITMKESL [S8Y], for which the protein stability index turned out to be 2.28.

With PTPAKRRGSALWSEMLDITMKESL [S8G], the protein stability index was 2.53.

As for PTPAKRRSSYLWSEMLDITMKESL [A10Y], the protein stability index came to 1.63.

As for PTPAKRRSSCLWSEMLDITMKESL [A10C], the protein stability index amounted to 2.18.

Consider PTPAKRRSSFLWSEMLDITMKESL [A10F], for which the protein stability index turned out to be 2.02.

On to PTPAKRRSSELWSEMLDITMKESL [A10E], for which the protein stability index turned out to be 2.35.

On to PTPAKRRSSALWSEMLQITMKESL [D17Q], for which the protein stability index stood at 1.85.

As for PTPAKRRSSALWSEMLAITMKESL [D17A], the protein stability index was 1.95.

As to PTPAKRRSSALWSEMLNITMKESL [D17N], the protein stability index was 2.75.

As to PTPAKRRSSALCSEMLDITMKESL [W12C], the protein stability index was 4.32.

As for PTPAKRRSSALSSEMLDITMKESL [W12S], the protein stability index is 4.09.

Turning to PTPAKRRSSALASEMLDITMKESL [W12A], the protein stability index came to 4.09.

As for PTPAKRRSSALKSEMLDITMKESL [W12K], the protein stability index came to 3.74.

Consider PTPAKRRSSALISEMLDITMKESL [W12I], for which the protein stability index was found to be 3.5.

Regarding PTPAKRRSSALGSEMLDITMKESL [W12G], the protein stability index amounted to 4.59.

In the case of PTPAKRTSSALWSEMLDITMKESL [R7T], the protein stability index is 2.16.

In the case of PTPAKRRSSALWSEMLDITMHESL [K21H], the protein stability index came out at 2.25.

For PTPAKRRSSALWSEMLDITYKESL [M20Y], the protein stability index stood at 2.64.

On to PTPAKRRSSALWSEMLDITEKESL [M20E], for which the protein stability index turned out to be 2.17.

Consider PTPAKRRSSALWSEMLDITVKESL [M20V], for which the protein stability index was determined as 2.73.

For the variant PTPAKRRSSALWSEMLDITMKCSL [E22C], the protein stability index was determined as 1.52.

Turning to PTPAKRRSSALWSEMLDITMKRSL [E22R], the protein stability index was determined as 3.35.

For PTPAKRRSSALWSEMLDITMKYSL [E22Y], the protein stability index was found to be 2.82.

Consider PTPAKRRSSALWSEMLDITMKKSL [E22K], for which the protein stability index is 1.48.

Consider KTPAKRRSSALWSEMLDITMKESL [P1K], for which the protein stability index turned out to be 2.04.

With WTPAKRRSSALWSEMLDITMKESL [P1W], the protein stability index amounted to 1.89.

Turning to VTPAKRRSSALWSEMLDITMKESL [P1V], the protein stability index came out at 2.63.

For STPAKRRSSALWSEMLDITMKESL [P1S], the protein stability index was 1.45.

Consider PTPAKRRSSALWSEMADITMKESL [L16A], for which the protein stability index stood at 2.59.

Turning to PTPAKIRSSALWSEMLDITMKESL [R6I], the protein stability index amounted to 1.84.

As for PTPQKRRSSALWSEMLDITMKESL [A4Q], the protein stability index was determined as 2.57.

For PTPGKRRSSALWSEMLDITMKESL [A4G], the protein stability index came out at 2.3.

For PTPPKRRSSALWSEMLDITMKESL [A4P], the protein stability index was found to be 2.11.

With PTPYKRRSSALWSEMLDITMKESL [A4Y], the protein stability index was determined as 1.82.

Turning to PTPAKRRSSALWSFMLDITMKESL [E14F], the protein stability index stood at 1.58.

Consider PTPAKRRSSALWSPMLDITMKESL [E14P], for which the protein stability index worked out at 3.15.

Take PTPAKRRSSAGWSEMLDITMKESL [L11G]: the protein stability index was determined as 4.11.

Consider PTPAKRRSSAVWSEMLDITMKESL [L11V], for which the protein stability index is 3.16.

In the case of PTPAKRRSSAMWSEMLDITMKESL [L11M], the protein stability index was 2.89.

As to PFPAKRRSSALWSEMLDITMKESL [T2F], the protein stability index is 1.97.

Turning to PWPAKRRSSALWSEMLDITMKESL [T2W], the protein stability index is 1.5.
